According to paper PMC7430637:

Key:
[1] = target: T1, FAM-H3(1–15)K9me3 peptide; experiment: fluorescence polarization; conditions: chain shown with the change; read at the highest protein concentration of the titration, about 50 µM on the x axis; parent: est. 0.28; read off a plot
T1 chain: ARTKQTARKSTGGKA

[2] = target: T2, FAM-H3(1-15)K9me3 peptide (N-terminally fluorescein-labelled); experiment: fluorescence polarisation; FAM-labelled H3(1-15) peptide, recombinant protein titrated; RT; as described (ref. 28)
T2 chain: ARTKQTARKSTGGKA

[3] = target: T3, H3(1-15)K9me3-FAM peptide (C-terminally fluorescein-labelled); experiment: as above
T3 chain: ARTKQTARKSTGGKA

[4] = target: T4, H3(1-15)unmodified-FAM peptide (C-terminally fluorescein-labelled); experiment: as above
T4 chain: ARTKQTARKSTGGKA

[5] = target: T1, FAM-H3(1–15)K9me3 peptide; experiment: fluorescence polarisation; FAM-labelled H3(1–15) peptide, recombinant protein titrated; room temperature; as described in ref. 28

B1: mTTD-PHD V1 P293A; P294A; P295A (protein)
chain: VWEDTDLGLYKVNEYVDVRDNIFGAWFEAQVVQVQKRALSEDEPCSSSAVKTSEDDIMYHVKYDDYPEHGVDIVKAKNVRARARTVIPWENLEVGQVVMANYNVDYPRKRGFWYDVEICRKRQTRTARELYGNIRLLNDSQLNNCRIMFVDEVLMIELPKERRPLIASPSQAAAALRNTGKSGPSCRFCKDDENKPCRKCACHVCGGREAPEKQLLCDECDMAFHLYCLKPPLTSVPPEPEWYCPSCRTDSSEVVQAGE
In the case of B1, the response (fraction bound) [1] is reported as 0.87.

B2: mTTD-PHD V1 R298A (protein)
chain: VWEDTDLGLYKVNEYVDVRDNIFGAWFEAQVVQVQKRALSEDEPCSSSAVKTSEDDIMYHVKYDDYPEHGVDIVKAKNVRARARTVIPWENLEVGQVVMANYNVDYPRKRGFWYDVEICRKRQTRTARELYGNIRLLNDSQLNNCRIMFVDEVLMIELPKERRPLIASPSQPPPALANTGKSGPSCRFCKDDENKPCRKCACHVCGGREAPEKQLLCDECDMAFHLYCLKPPLTSVPPEPEWYCPSCRTDSSEVVQAGE
Work on B2 yielded a response (fraction bound) [1] of 0.97.

B3: mTTD-PHD V1 K302A; S303A (protein)
chain: VWEDTDLGLYKVNEYVDVRDNIFGAWFEAQVVQVQKRALSEDEPCSSSAVKTSEDDIMYHVKYDDYPEHGVDIVKAKNVRARARTVIPWENLEVGQVVMANYNVDYPRKRGFWYDVEICRKRQTRTARELYGNIRLLNDSQLNNCRIMFVDEVLMIELPKERRPLIASPSQPPPALRNTGAAGPSCRFCKDDENKPCRKCACHVCGGREAPEKQLLCDECDMAFHLYCLKPPLTSVPPEPEWYCPSCRTDSSEVVQAGE
Work on B3 yielded a response (fraction bound) [1] of 0.2.

B4: hTTD-PHD module carrying the nine amino acid insertion of mLinker 2 V1 (domain or fragment)
chain: MWDETELGLYKVNEYVDARDTNMGAWFEAQVVRVTRKAPSRDEPCSSTSRPALEEDVIYHVKYDDYPENGVVQMNSRDVRARARTIIKWQDLEVGQVVMLNYNPDNPKERGFWYDAEISRKRETRTARELYANVVLGDDSLNDCRIIFVDEVFKIERPGEGSPMVDNPMRPPPALRNTGKSGPSCKHCKDDVNRLCRVCACHLCGGRQDPDKQLMCDECDMAFHIYCLDPPLSSVPSEDEWYCPECRNDASEVVLAGE
modifications: not checked
For B4, the Kd [2] was over 50 µM, the Kd [3] was 6.9 µM and the Kd [4] was 4.5 µM.

B5: hTTD-PHD, mLinker2 V1* (domain or fragment)
chain: MWDETELGLYKVNEYVDARDTNMGAWFEAQVVRVTRKAPSRDEPCSSTSRPALEEDVIYHVKYDDYPENGVVQMNSRDVRARARTIIKWQDLEVGQVVMLNYNPDNPKERGFWYDAEISRKRETRTARELYANVVLGDDSLNDCRIIFVDEVFKIERPGEGSPMVDNPMRPPPALRNTGKSGPSCKHCKDDVNRLCRVCACHLCGGRQDPDKQLMCDECDMAFHIYCLDPPLSSVPSEDEWYCPECRNDASEVVLAGE
modifications: not checked
For B5, the Kd [5] was over 100 µM.

B6: hTTD-PHD (domain or fragment)
chain: MWDETELGLYKVNEYVDARDTNMGAWFEAQVVRVTRKAPSRDEPCSSTSRPALEEDVIYHVKYDDYPENGVVQMNSRDVRARARTIIKWQDLEVGQVVMLNYNPDNPKERGFWYDAEISRKRETRTARELYANVVLGDDSLNDCRIIFVDEVFKIERPGEGSPMVDNPMRRKSGPSCKHCKDDVNRLCRVCACHLCGGRQDPDKQLMCDECDMAFHIYCLDPPLSSVPSEDEWYCPECRND
modifications: not checked
B6 gave a Kd [5] of 16.2 µM.
